# Data as given in the supplement of paper PMC12764529.
# ± gives the half width of the 95% confidence interval.
# Legend:
# [1] = folding stability dG unfold from trypsin proteolysis; higher = more stable
# Method in brief: (§1)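 Unfolding free energy was derived, per protease or combined, by relating Bayesian-fitted K50 values from sequencing counts to a sequence-predicted unfolded-state K50 and a shared folded-state K50. The underlying digests exposed cysteine-free mini-proteins under 80 residues, in a PA-tagged cDNA display construct, to trypsin and chymotrypsin at 11 threefold-diluted concentrations and to a no-protease condition. A filter kept only designs with AlphaFold2 dimer inter-PAE above 15.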
# [2] = folding stability dG unfold (combined trypsin and chymotrypsin); higher = more stable
# Method in brief: as §1
# [3] = folding stability dG unfold from chymotrypsin proteolysis; higher = more stable
# Method in brief: as §1
Sequence,folding stability dG unfold [1] [kcal/mol],folding stability dG unfold [2] [kcal/mol],folding stability dG unfold [3] [kcal/mol]
SAGGSAGGSAWHIRIHPGNEPQWIPIDDLRDKGLPPEELAEELQKKFGFKVEIVDPGWIRVKSAGGSAGGSA [r18_7_TrROS],-0.284 ± 0.26,-0.348 ± 0.24,-0.364 ± 0.42
SAGGSAGGSAGPKPLATITLPYPDNASVTITVTPNGVLIDPDPNITNPEVEKAVADALTDSAGGSAGGSAGG [r11_372_TrMRF],1.55 ± 0.11,1.41 ± 0.099,1.07 ± 0.12
SAGGSAGGSAGMEPEIYTITTTDSNGNTSSYTFTSTEEVNAFLNDPSFQSSAVSFTVSPTSAGGSAGGSAGG [r11_1047_JUSTAS],2.57 ± 0.053,2.76 ± 0.076,2.88 ± 0.047
SAGGSASVEVSVEEKDGTLTVTVTVEVDGKLVTVTVTLTLPPPPPLSAEELEKAREAEKEGKTVEVSAGGSA [r15_631_TrROS_Hall],1.24 ± 0.12,2.49 ± 0.11,2.77 ± 0.16
SAGGSAGGSSSATLAADETATLRFRVTLTFGSGVRSGTADLSGSVSATVEVDVEIEVRNLADDSAGGSAGGS [r12_668_TrMRF],3.32 ± 0.056,4.24 ± 0.07,4.62 ± 0.082
SAGGSAMLVFKITIKNPETNETIELEIEAETLEEAKEAIEKLIAELTGKEPTEIKIEVVEIKEEDLSAGGSA [r15_670_TrROS_Hall],4.09 ± 0.35,4.42 ± 0.27,4.47 ± 0.3
SAGGSAGGSPAPDVTIEVKVTYDPETGALRIEVEATIPGGGKITIEYTIPPLDKIEIVGVKIESAGGSAGGS [r12_1029_TrMRF],2.63 ± 0.15,3.6 ± 0.26,3.83 ± 0.2
SAGGSAGGSAGGSGMTTTLLEQREFTLPNGEPVRVTVARFPGGEIVTETEDGVVTTDPLSAGGSAGGSAGGS [r4_111_JUSTAS],-0.134 ± 0.064,0.159 ± 0.08,0.281 ± 0.08
SAGPPGMRMVPFTIELPGKKIEIHVMEYPNGPPQYMVEIEDPNGKPKWTIMVTGPEARDLLEKAGIKFSAGG [r19_90_TrROS],0.438 ± 0.1,1.01 ± 0.1,1.23 ± 0.14
SAGGSAGGSAGKLRYRYRFDTVLLEVTYDPSTGEVVEVKVIPLSPLPPLTPEELYRLLEDSAGGSAGGSAGG [r11_320_TrMRF],2.25 ± 0.053,2.82 ± 0.056,3.071 ± 0.018
SAGGSMGKTPDGGEVEFFEKPEENLIFAVVKHPDGSYYVAVFKKDEDKIELIDVKEVPEGEIEELASAGGSA [r2_336_TrMRF],1.26 ± 0.089,1.89 ± 0.13,2.07 ± 0.031
GSVTIELVVPKGVDIPLALLAGIASTGKGKVTARISNPLSGKEIEVTFPGGGLGEAGVTEGINVVRLTVYGS [r1_238_TrMRF],0.869 ± 0.1,1.2 ± 0.19,1.29 ± 0.11
SAPFTATETVVTEEEDPATGLTRIPVEMTVDDHPVTGEGVRDPADPSRVSFSITFPDSDLTLTGEEPLPSAG [r14_178_JUSTAS],0.491 ± 0.036,0.312 ± 0.048,-0.0428 ± 0.11
PLTFPALVRNPLEDRWEEVTVTLHPDGTLTVTHRGRPLASVRVVTRPPPEVELVPVRDADGVERLGLRTRGS [r1_496_TrMRF],0.346 ± 0.071,0.964 ± 0.074,1.21 ± 0.08
SAGGKPLEPKIEVEVIPLPSGERVITLRVEVPPNDPLKIKFPGLKKEVEFPGDDEVEFRVVVPPDSFSAGGS [r16_56_TrMRF],0.662 ± 0.1,0.69 ± 0.14,0.631 ± 0.1
SAGGSAGGSAGMYYVIKRPGKVEILPEEEVPKVIEEDPNVEVKKFDSEEEAKKALEELLKSAGGSAGGSAGG [r11_60_JUSTAS],0.539 ± 0.039,0.704 ± 0.058,0.793 ± 0.073
SAGGMVVVAVEVDPVTKTATIVYAAPVPNLGGYVPIPAAAVAKRLTEELGLPDVKEVTVAQAAGDVPISAGG [r13_327_TrMRF],0.428 ± 0.057,0.578 ± 0.12,0.607 ± 0.1
